Source: patent US20240294650A1 (Alector, published 2024)
Numbering of substitutions follows the chain as printed.

T1: Recombinant human MerTK-human Fc Chimera protein (human, UniProt Q12866 26-499, limits assumed)
T1 construct: bought construct; also called MerTK-Fc (R&D systems, Cat #391-MR-100)
T1 sequence: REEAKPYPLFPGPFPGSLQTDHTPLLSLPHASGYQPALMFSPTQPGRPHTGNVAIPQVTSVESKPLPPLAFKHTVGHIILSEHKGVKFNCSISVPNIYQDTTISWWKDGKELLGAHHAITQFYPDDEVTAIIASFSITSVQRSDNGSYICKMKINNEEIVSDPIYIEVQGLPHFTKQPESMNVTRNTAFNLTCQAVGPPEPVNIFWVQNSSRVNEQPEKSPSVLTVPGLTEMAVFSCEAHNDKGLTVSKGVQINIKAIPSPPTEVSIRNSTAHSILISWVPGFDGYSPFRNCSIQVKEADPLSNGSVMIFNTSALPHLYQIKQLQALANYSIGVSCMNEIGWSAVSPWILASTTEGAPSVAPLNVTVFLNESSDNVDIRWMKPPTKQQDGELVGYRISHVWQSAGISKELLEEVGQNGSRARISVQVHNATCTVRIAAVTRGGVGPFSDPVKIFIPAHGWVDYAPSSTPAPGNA

T2: mouse MerTK overexpressed on CHO cells (mouse, UniProt Q60805 19-994)
T2 construct: whole, on cells; also called CHO-muMerTK OE
T2 sequence (looked up): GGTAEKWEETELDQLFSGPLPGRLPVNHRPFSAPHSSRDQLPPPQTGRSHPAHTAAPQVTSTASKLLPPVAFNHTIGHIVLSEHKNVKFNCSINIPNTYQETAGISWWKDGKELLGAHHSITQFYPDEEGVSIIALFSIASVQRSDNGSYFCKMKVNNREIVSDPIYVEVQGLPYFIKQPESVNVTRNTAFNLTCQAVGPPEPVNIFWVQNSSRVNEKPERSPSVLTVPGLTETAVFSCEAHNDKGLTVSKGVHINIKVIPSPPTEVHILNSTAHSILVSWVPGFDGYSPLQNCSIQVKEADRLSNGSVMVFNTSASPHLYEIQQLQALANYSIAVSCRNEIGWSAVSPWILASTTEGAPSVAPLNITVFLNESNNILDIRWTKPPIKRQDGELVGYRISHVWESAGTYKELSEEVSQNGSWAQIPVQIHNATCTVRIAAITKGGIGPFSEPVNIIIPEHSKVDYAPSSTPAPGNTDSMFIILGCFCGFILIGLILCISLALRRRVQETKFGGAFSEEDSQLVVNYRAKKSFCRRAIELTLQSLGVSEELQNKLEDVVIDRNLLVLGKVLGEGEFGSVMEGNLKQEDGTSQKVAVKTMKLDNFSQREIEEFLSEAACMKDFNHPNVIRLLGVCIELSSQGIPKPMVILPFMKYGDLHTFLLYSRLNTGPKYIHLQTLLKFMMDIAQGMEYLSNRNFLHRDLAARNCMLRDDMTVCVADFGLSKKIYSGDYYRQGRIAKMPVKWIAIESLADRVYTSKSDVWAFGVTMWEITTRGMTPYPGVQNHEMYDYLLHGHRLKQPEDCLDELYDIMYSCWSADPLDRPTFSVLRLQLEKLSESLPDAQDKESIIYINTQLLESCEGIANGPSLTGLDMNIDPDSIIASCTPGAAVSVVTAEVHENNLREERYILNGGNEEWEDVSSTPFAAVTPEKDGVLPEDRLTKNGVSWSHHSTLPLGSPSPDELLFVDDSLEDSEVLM

T3: endogenous murine MerTK on bone marrow-derived macrophages (mouse, UniProt Q60805 19-994)
T3 construct: whole, on cells; MFI on MerTK KO BMDM subtracted; also called BMDM WT-KO
T3 sequence (looked up): T2 sequence (looked up)

B1: MTK-206 (antibody, human IgG1, V domains shown)
VH: QVQLQQSGAELARPGASVKMSCKASGYTFTSYTMHWVKQRPGQGLEWIGYINPSSGYIKNSQKFKDKATLTADKSSSTAYMQLSSLTSEDSAVYYCARTVYGYYGSSPDYWGQGTTLTVSS
VL: DIQMTQSPSSLSASLGERVSLTCRASQDIGSNLNWLQQEPDGTIKRLIYATSSLESGVPKRFSGSRSGSDYSLTISSLESEDFVDYYCLQYDSSPWTFGGGTKLEIK
B2: MTK-201 (antibody, human IgG1, V domains shown)
VH: QVQLRQSGPGLVQPSQSLSITCTVSGFSLSNYGLHWVRQSPGKGLEWLGVIWSGGITDYNAAFISRLSIIKDNSRSQVFFKMNSLQADDTAIYYCARKGHDPYAMDFWGQGTSVTVSS
VL: QIVLTQSPPIMSAFLGERVTMTCTASSSVSSSYLHWYRQMPGSSPKLWIYDTSNLASGVPARFSGSGSGTSYSLTISSMEAEDAATYYCHQYHHSPYTFGGGTKLEIK
B3: MTK-221 (antibody, human IgG1, V domains shown)
VH: QVTLKESGPGMLQSSQTLSLTCSFSGFSLSTSGMGVSWIRQPSGKGLEWLAHIYWDDDKRYNTSLQSRLTISKDTSRNQVFLKITSVDTADTATYFCGRLGAYSAFPYYFDYWGQGTTLTVSS
VL: DIQMTQSPSSLSASLGGKVTITCKASQDIHKHIAWYQHKPGKGPRLLIHYTSTLQPGIPSRFSGSGSGRDYSFSISNLEPEDLATYYCLQYDNLWTFGGGTKLEIK
B4: MTK-210 (antibody, human IgG1, V domains shown)
VH: QVQLQQSGPELVKPGASVKISCKASDYEFSRSWMNWVKQRPGKGLEWIGRIYPGDGDTNYNGKFKGKATLTADKSSNTAYMQLNSLTSEDSAVYFCARKGGYYYSISNYFDYWGQGTTLTVSS
VL: QIVLTQSPAIMSASPGVKVTMTCSASSSVSYMHWYQQKPGSSPRLLIYDTSNLASGVPVRFSGSGSGTSYSLTISRMEAEDAATYYCQQWSSYPPYTFGGGTKLEIK
B5: MTK-216 (antibody, human IgG1, V domains shown)
VH: EVQLVESGGGLVKPGGSLKLSCAASGFTFSDYGMHWVRQAPEKGLEWVAFISSGSTTIYYADTVKGRFTISRDNAKNTLILQMTSLRSEDTAIYYCTRGGFHLDYWGQGTTLTVSS
VL: SIMMTQSPSSLAVSAGEKVTMGCKSSQSVLYSANQQNYLAWYQQKPGQSLKLLIYWASTRESGVPDRFTGSGSGTDFTLTISSVQAEDLAVYYCHQYFSSWTFGGGTKLEIK
B6: MTK-208 (antibody, human IgG1, V domains shown)
VH: QVQLQQPGAELVVPGASVRLSCKASGYTFINYWMHWVKQRPGQGLEWIGEIDPSDSYANYNQKFKDKSTLSLDKSSSTAYMQLSSLTSEDSAVYYCARCDYYGRLDYWGQGTTLTVSS
VL: QVVLTQSPAIMSASPGEKVTITCSASSSVSYMLWFQQKPGTSPKLWIYSTSNLASGVPARFSGSGSGTSYSLTISRLEAEDAATYYCQQRSSYPPITFGAGTKLELK
B7: MTK-230 (antibody, human IgG1, V domains shown)
VH: EVQLQQSGPELVKPGASVRIPCKASGYTFSDYNMDWVKQSHGKSLEWIGNINPNIGGTIYSQKFKGKATLTVDKSSSTAYMELRSLTSEDTAVYYCARGDYGFASWGQGTLVTVSA
VL: DIVLTQSPASLTVSLGQRATISCRASRSVSTSGYSYMHWYQQKPGQPPKLLIYLASNLESGVPARFSGSRSGTDFTLNIHPVEEEDAATYYCQHSREYPFTFGSGTKLEIK
B8: MTK-203 (antibody, human IgG1, V domains shown)
VH: QVQLQQPGAELVKPGASVKVSCKASGYTFTNYWMHWVKQRPGQGLEWIGRIHPFDTETNDNQKFKGKATLTVDKSSSTAYMQLSSLTSEDSAVYYCVIPANGGFAYWGQGTLVTVSA
VL: ETTVTQSPASLSVATGEKVTIRCITSTDIGDDMNWYQQKPGEPPKVLISEGNSLRPGVPSRFSSSGYGTDFVFTIENTLSEDVADYFCLQSDNLPLTFGSGTKLEIK
B9: MTK-224 (antibody, human IgG1, V domains shown)
VH: QVQLQQPGAELVKPGASVKVSCKASGYTFTSYWMHWVKQRPGQGLEWIGRIHPFDSDTNYNQKFKGKATLTVDKSSSTAYMQLSSLTSEDSAVYYCSIAGFAYWGQGTLVTVSA
VL: DIVMTQSPATLSVTPGDRVSLSCRASQIISDYLNWYQQKSHESPRLLIKYASQSISGIPSRFSGSGSGSDFTLSINSVEPEDVGVYYCQNGHSFPLTFGAGTKLELK
B10: MTK-209 (antibody, human IgG1, V domains shown)
VH: B9 VH with S31N, M34I, D57E, T58P, Q82H, S84T, S97A, I98L, G100S
VL: ETTVTQSPASLSMAMGEKATIRCITSTDIDDKMNWYQQKPGKPPKLLISAGNTLRPGVPSRFSSSGYGTDFVLTVENMLSEDVADYYCLQGGALPLTFGSGTKLEIK
B11: MTK-214 (antibody, human IgG1, V domains shown)
VH: QVQLQQPGAELVKPGASVKVSCKASGYTFTNYWMHWMKQRPGQGLEWIGRIHPFDSDTNYNEKFTDKATLTVDKSSSTAYMQLSSLTSEDSAVYYCAIGTLIYWGQGTTLTASS
VL: DILLTQSPATLSVTPGETVSLSCRASQSIYKKLHWFQQRSHRSPRLLIKFASDSISGIPSRFTGSGSGTDYTLSINSVKPEDEAIYYCLQGYSTPLTFGAGTKLELK

Biological target: T1, Recombinant human MerTK-human Fc …
Assay: blocking ELISA, Gas6-His on MerTK-Fc, Ab 66.6 nM, isotype=100%
Protocol: Briefly, rabbit anti-human IgG antibody (Jackson ImmunoResearch, Cat #309-005-008) was coated at 2 μg/ml onto high-protein binding plates at 4° C. overnight. After washing with 0.05% Tween20 in PBS three times, 5% BSA in PBS was added for 1 hour. Recombinant human MerTK-human Fe Chimera protein (R&D systems, Cat #391-MR-100) was added at 2 μg/ml for 1 hour and plates were washed before the addition of 40 μl of anti-MerTK hybridoma supernatants and 40 μl of His tag-conjugated recombinant Gas6 (R&D systems, Cat #885-GSB-050) at 3 μg/ml or His tag-conjugated recombinant ProS (R&D systems, Cat #9489-PS-100) at 20 μg/ml. After a further incubation for 1 hour, plates were washed and incubated for 1 hour with HRP-conjugated anti-6×His tagged antibody (Abcam, Cambridge, MA, Cat #ab1187). Plates were then washed and an HRP substrate, TMB, was added to develop the plates. The reaction was stopped by adding 50 μl 2N H₂SO₄ and the OD was measured using a spectrophotometer (BioTek).
Anti-MerTK antibodies were titrated to a final concentration from 66.6 nM to 4 pM and tested against anti-human MerTK antibody M6 (disclosed in WO2016/106221) or isotype control antibody.

In order of rising “Percent Gas6 ligand binding” value:
1. B1  103%
2. B5  104%
3. B3  106%
4. B6  107%
5. B2  112%
6. B4  114%

Biological target: T2, mouse MerTK overexpressed on CHO cells
Assay: FACS, CHO-muMerTK OE cells, 10 ug/ml
Protocol: (§1) To determine whether recombinant anti-human MerTK antibodies of the present disclosure bind to human MerTK endogenously expressed on SK-MEL-5 cells and CHO cells overexpressing mouse MerTK (CHO-muMerTK OE cells), as compared to A375 and parental CHO cells as negative controls, the following experiments were performed. SK-MEL-5 cells, A375 cells, CHO-muMerTK OE cells, and CHO parental cells were plated at 100,000 cells/well. Anti-MerTK antibodies were added to the cells at 10 μg/ml. After 60 minutes on ice, cells were washed and then stained with PE-conjugated goat anti-human IgG antibody (Southern Biotech Cat #2040-09, Birmingham, AL) in the presence of Fc block solution on ice for 30 minutes, and then washed twice with cold FACS buffer (2% FBS in PBS). Mouse anti-human MerTK-PE conjugated (Biolegend, Clone 590H11G1E3) or anti-mouse MerTK-PE conjugated (ThermoFisher, Clone DS5MMER) antibodies were used as positive controls. Stained cells were acquired on a BD FACS Canto II cytometer and the mean fluorescence intensity (MFI) was calculated with FlowJo.

In order of rising MFI:
1. B2  252 MFI
2. B4  252 MFI
3. B6  329 MFI
4. B3  374 MFI
5. B9  616 MFI
6. B10  1220 MFI
7. B8  2080 MFI
8. B7  12400 MFI

Biological target: T3, endogenous murine MerTK on bone …
Assay: FACS, mouse BMDM, WT minus MerTK KO
Protocol: as §1
To confirm anti-MerTK antibody binding to endogenous murine MerTK, bone marrow-derived macrophages (BMDM) were isolated from MerTK wild type (WT) and knockout (KO) mice (The Jackson Laboratory, Cat #011122) using standard protocols. Briefly, cells isolated from the bone marrow were plated in the presence of 50 ng/ml M-CSF (R&D Systems, Cat #416-ML) for seven days to allow for differentiation into macrophages. Cell staining, FACs, and MFI were performed and calculated as described above.

In order of rising MFI:
1. B1  431 MFI
2. B10  813 MFI
3. B9  1860 MFI
4. B11  2950 MFI
5. B8  2980 MFI
6. B7  9120 MFI
